Reference: paper PMC11579514, “Validation of NBD-coupled taurocholic acid for intravital analysis of bile acid transport in liver and kidney of mice” (EXCLI Journal, 2024)

How the values were obtained:
[1] = substrate: C[C@H](CCC(=O)NCCS(=O)(=O)O)[C@H]1CC[C@H]2[C@@H]3[C@H](O)C[C@@H]4C[C@@H](Nc5ccc([N+](=O)[O-])c6nonc56)CC[C@]4(C)[C@H]3C[C@H](O)[C@]12C; test: sodium-dependent fluorescent uptake kinetics (Km) in mAsbt-HEK cells; assay type: cell-based, Mus musculus; details: Na+
[2] = substrate: C[C@H](CCC(=O)NCCS(=O)(=O)O)[C@H]1CC[C@H]2[C@@H]3[C@H](O)C[C@@H]4C[C@@H](Nc5ccc([N+](=O)[O-])c6nonc56)CC[C@]4(C)[C@H]3C[C@H](O)[C@]12C; test: sodium-dependent fluorescent uptake kinetics (Km) in mNtcp-HEK cells; assay type: cell-based, Mus musculus; details: Na+

B1: mAsbt (mouse apical sodium-dependent bile acid transporter) (Mus musculus) (protein)
chain: MDNSSVCPPNATVCEGDSCVVPESNFNAILNTVMSTVLTILLAMVMFSMGCNVEVHKFLGHIKRPWGIFVGFLCQFGIMPLTGFILSVASGILPVQAVVVLIMGCCPGGTGSNILAYWIDGDMDLSVSMTTCSTLLALGMMPLCLFVYTKMWVDSGTIVIPYDSIGISLVALVIPVSFGMFVNHKWPQKAKIILKIGSITGVILIVLIAVIGGILYQSAWIIEPKLWIIGTIFPIAGYSLGFFLARLAGQPWYRCRTVALETGMQNTQLCSTIVQLSFSPEDLNLVFTFPLIYTVFQLVFAAVILGIYVTYRKCYGKNDAEFLEKTDNEMDSRPSFDETNKGFQPDEK
notes: full open reading frame with C-terminal FLAG, stably expressed in HEK293
Work on B1 yielded a Km [1] of 19.1 µM.

B2: mNtcp (mouse Na+/taurocholate co-transporting polypeptide) (Mus musculus) (protein)
chain: MEAHNVSAPFNFSLPPGFGHRATDTALSVILVVMLLLIMLSLGCTMEFSKIKAHFWKPKGVIIAIVAQYGIMPLSAFLLGKVFHLTSIEALAILICGCSPGGNLSNLFTLAMKGDMNLSIVMTTCSSFTALGMMPLLLYIYSKGIYDGDLKDKVPYKGIMLSLVMVLIPCAIGIFLKSKRPHYVPYVLKAGMIITFSLSVAVTVLSVINVGNSIMFVMTPHLLATSSLMPFTGFLMGYILSALFRLNPSCRRTISMETGFQNVQLCSTILNVTFPPEVIGPLFFFPLLYMIFQLAEGLLFIIIFRCYLKIKPQKDQTKITYKAAATEDATPAALEKGTHNGNNPPTQPGLSPNGLNSGQMAN
notes: as for B1
Protein B2 has a Km [2] of 23.3 µM.
